Data reported in US20080299228A1, “TOPICAL COMPOSITIONS COMPRISING A MACROMOLECULE AND METHODS OF USING SAME” (priority 2007, published 2008).
No end group written: not given here. *: point of attachment. 125I = [125I]*

Assays:
[1] = Effect of process parameters and excipients on rehydration time of lyophilized HEC gel; type: physicochemical; design: key: ✓: Additives that had a positive effect (i.e., reduction in hydration time) have a check mark beside them; details: additive screening
Method: Preliminary studies on rehydration time used water (see Table 13). Rehydration in 12% hexylene glycol, a humectant, decreased the rehydration time for a HEC 250HX lyophilized cake down to 20-30 minutes. Further experiments used 12% hexylene glycol for rehydration.
The freezing rate for lyophilized products can affect the cake structure. Freezing at −20° C. was the standard procedure used in this study. To investigate the effect of a faster freezing rate, samples were frozen in a dry ice/ethanol bath at −48° C.
Samples from both freezing methods were lyophilized. During the lyophilization process, all samples from the ice bath freezing collapsed into dense cakes. During rehydration, the ice bath frozen cakes were much slower to form gels. It took at least 1 hour to rehydrate the ice bath frozen cakes.
HEC 250HX gels at 1.125 and 2.25% polymer were prepared. The latter gel was more viscous than the former due to the higher polymer concentration. After freeze drying, cakes from both products were rehydrated so that the final polymer concentration was 1.125%. The lyophilized gels prepared with the more concentrated polymer solution required approximately 15-20 minutes longer to rehydrate than the more dilute formulation. The higher density of the concentrated polymer cake was likely a factor in the longer rehydration time.
Additives with a wide range of physical properties were screened to evaluate their effect on rehydration time for a lyophilized 1.125% HEC 250HX gel. The chemical classes included in this screen were polymers, surfactants, amino acids, colloidal powders, and salts. All additives were crystalline at room temperature. The use of amorphous excipients could lead to melting/cake collapse at elevated temperature. When evaluating chemical classes, priority was given to those included in the IIG for topicals. Excipients shown to be physically and/or chemically incompatible with PTH(1-34) were excluded (4). Salts containing polyvalent anions were also excluded to avoid the potential for precipitating PTH(1-34).
“Powdered” solid formulations were also evaluated. […]

[2] = Percutaneous absorption of 125I macromolecules, in vitro cadaver skin finite dose technique; type: in vitro ADME, human; details: for Total Absorption / Dermis / Epidermis / Stratum Corneum / Surface Wash: 48 hours
Text: Radiolabeled Bovine Serum Albumin was acquired from American Radiolabeled Chemicals (St. Louis, Mo.) as ARI 0112 Albumin (bovine serum) [I^125] with a specific activity of 204 Ci/mmol (Lot number 080372). Radiolabeled Epidermal Growth Factor (murine) and Somatastatin were acquired from Perkin Elmer Life and Analytical Sciences (Boston, Mass.) as [^125I]-Epidermal Growth Factor (murine) and [^125I]Tyr11-Somatostatin 14 with specific activities of 2200 Ci/mmol (Lot number CC41180) and 2200 Ci/mmol (Lot number JX32880), respectively. Each stock isotope was either provided as, or reconstituted into 12.5 μL of distilled de-ionized water. This volume was added to 500 μL of the provided test formulations and mixed for uniformity. Replicate assessments were made from each final mixture to determine specific activity.
Skin Preparation. Percutaneous absorption was measured using the in vitro cadaver skin finite dose technique. Ex vivo human trunk skin without obvious signs of skin disease, obtained within 24-48 hours of death, was used in this study. Skin was dermatomed, prepared for cryopreservation, sealed in a water impermeable plastic bag, and stored at <−70° C. until the day of the experiment. Prior to use, it was thawed in ˜37° C. water, then rinsed in water to remove any adherent blood or other material from the surface.
Skin from a single donor was cut into multiple smaller sections large enough to fit on static 1.0 cm^2 Franz diffusion cells (see FIG. 6). The dermal chamber was filled to capacity with a reservoir solution of phosphate-buffered isotonic saline (PBS), pH 7.4±0.1, and the epidermal cell (chimney) left open to ambient laboratory conditions. All cells were mounted in a diffusion apparatus in which the dermal bathing solution was stirred magnetically at approximately 600 RPM and the skin surface temperature maintained at 32.0° C.±1.0° C.
To assure the integrity of each skin section, its permeability to tritiated water was determined before application of the test products. Following a brief (0.5-1 hour) equilibrium period, ^3H2O (NEN, Boston, Mass., sp. Act. ˜0.5 μCi/mL) was layered across the top of the skin by dropper so that the entire exposed surface was covered (approximately 250-500 μL). After 5 minutes the ^3H2O aqueous layer was removed. At 30 minutes the receptor solution was collected and analyzed for radioactive content by liquid scintillation counting. Skin specimens in which absorption of ^3H2O was less than 1.56 μL-equ/cm^2 were considered acceptable.
Dosing and Sample Collection. Just prior to dosing, the reservoir solution was replaced with a fresh solution of 1× PBS and a pre-dose sample taken for analysis. The chimney was removed from the Franz Cell to allow full access to the epidermal surface of the skin. All formulations were then applied to the skin sections using a positive displacement pipette set to deliver 5 μL formulation/cm^2. The dose was spread across the surface with the Teflon® tip of the pipette. Five to ten minutes after application, the chimney portion of the Franz Cell was replaced. At pre-selected times after dosing (1, 2, 4, 8, 12, 24, 32, and 48 hours) the reservoir solution was removed in its entirety, replaced with fresh reservoir solution, and a predetermined volume aliquot saved for subsequent analysis.
After the last sample was collected, the surfaces were washed twice (0.5 mL volume each) with 1× PBS to collect un-absorbed formulation from the surface of the skin. Following the wash, the skin was tape stripped a sufficient number of times to collect the stratum corneum. The skin was then removed from the chamber and split into epidermis and dermis. All skin sections were dissolved overnight in Soluene-350® (Perkin Elmer).
Analytical Methods. Analysis of all formulations was by liquid scintillation counting. One-milliliter volumes of each receptor solution and each surface wash received 5-6 mL scintillation fluid or as needed. […]

[3] = Rehydration time of lyophilized polymer gels; type: physicochemical; details: xanthan gum, carrageenan
Method: Lyophilized gels were prepared by slowing adding the polymer to water with stirring. For gels with methylcellulose or hydroxypropylcellulose, the polymer was added to hot water and the product was cooled with stirring. The gels took between 1-3 hours to reach maximum viscosity. All gels were allowed to stand for at least 12 hours before any additional processing. If PTH(1-34) was included in the formulation, the peptide was added to an aliquot of gel and gently stirred for 10 minutes.
Prior to lyophilization, gels were filled into Type I glass vials and frozen. Freezing was performed on a freezer shelf (−20° C.) or in a dry ice/ethanol bath (˜−48° C.). The lyophilizer (Ultra-dry Labtop, Freezedry Specialties, Inc) was equipped with a condenser (−50° C.) and an ultra high vacuum pump (DUO 2.5, Pfeiffer Vacuum, Inc) to provide optimal conditions for sublimating the frozen water. No heating or cooling was applied to the lyophilizer shelf. Vials containing lyophilized gels with PTH(1-34) were purged with nitrogen before stoppering (Teflon coated butyl rubber) and sealing (aluminum crimp seal).
A panel of lyophilized polymer gel was screened for the capacity to reform gels following rehydration. […]

[4] = type: physicochemical
Method: All excipients for the room temperature gel formulations met USP/NF monographs. Reagents for analysis were HPLC and/or ACS grade and nitrogen was ultra high purity (>99.999%). PTH(1-34) was supplied by Neo-MPS. Reverse phase HPLC RP-HPLC analysis of reconstituted gels/solutions was performed according to standard methods.
At each time point, two assays were performed on each formulation.
Before preparing larger batches for longer term stability studies, three pilot batches were prepared on the 10 g scale to assess the solid product's stability. The batches included either PTH(1-34) plus HEC, PTH(1-34) plus HEC in 1.0% mannitol and PTH(1-34) plus HEC in 1.0% lactose. The lyophilized gels were prepared according to the method of Example 8. Stability was assayed according to by HPLC.
The PTH(1-34) formulations that included HEC in 1.0% mannitol and HEC alone were prepared on a larger scale for use in a long-term stability analysis. In addition to these two lyophilized gel formulations, neat PTH(1-34), i.e., PTH powder, was also filled into vials (purged with nitrogen).
PTH was assayed by HPLC analysis of reconstituted gels/solutions. The samples were assayed before storage, stored at 40° C. and assayed at 1, 3, and 6 months after storage. At each time point, 2 assays were performed on each formulation. […]

[5] = 0.5 hr (midpoint), Mean ± SE, n = 3 Donors
[6] = 28.0 hr (midpoint), Mean ± SE, zeros below LLOQ
[7] = percent of applied dose, Mean ± SE

Compound | effect of additive on hydration time of lyophilized 1.125% HEC 250 HX gel [1] | Mean Flux [2, 5] | Mean Flux ([2]; 1.5 hr (midpoint), Mean ± SE) | Mean Flux ([2]; 3.0 hr (midpoint), Mean ± SE) | Mean Flux ([2]; 6.0 hr (midpoint), Mean ± SE) | Mean Flux ([2]; 10.0 hr (midpoint), Mean ± SE) | Mean Flux ([2]; 18.0 hr (midpoint), Mean ± SE) | Mean Flux [2, 6] | Mean Flux ([2]; 40.0 hr (midpoint), Mean ± SE) | Total Absorption ([2]; single application, Mean ± SE) | Dermis ([2]; Mean ± SE) | Epidermis ([2]; Mean ± SE) | Stratum Corneum ([2]; Mean ± SE) | Surface Wash ([2]; Mean ± SE) | Dermis ([2]; percent of applied dose) | Epidermis ([2]; percent of applied dose) | Stratum Corneum ([2]; percent of applied dose) | Surface Wash ([2]; percent of applied dose) | Total Absorption [2, 7] | further results
[Cl-].[K+] [Potassium Chloride] | Potassium Chloride✓ |  |  |  |  |  |  |  |  |  |  |  |  |  |  |  |  |  |  | 
[Cl-].[Na+] [Sodium Chloride] | Sodium Chloride✓ |  |  |  |  |  |  |  |  |  |  |  |  |  |  |  |  |  |  | 
CC(O)C(=O)[O-].[Na+] (stereo not drawn) [Sodium Lactate] | Sodium Lactate✓ |  |  |  |  |  |  |  |  |  |  |  |  |  |  |  |  |  |  | 
Bovine Serum Albumin: [125I] bovine serum albumin in HEC gel, 1.0 mg/mL |  | 4.69 ± 3.93 ng/cm^2/hr | 1.04 ± 1.04 ng/cm^2/hr | 0.71 ± 0.43 ng/cm^2/hr | 0.26 ± 0.12 ng/cm^2/hr | 0.05 ± 0.05 ng/cm^2/hr | 0.04 ± 0.04 ng/cm^2/hr | 0.02 ± 0.02 ng/cm^2/hr | 0.06 ± 0.03 ng/cm^2/hr | 0.010 ± 0.007 µg | 0.079 ± 0.024 µg | 0.423 ± 0.060 µg | 0.616 ± 0.157 µg | 3.788 ± 0.357 µg | 1.607 ± 0.487% | 8.610 ± 1.230% | 12.552 ± 3.202% | 77.182 ± 7.273% | 0.205 ± 0.148% | 
Epidermal Growth Factor: [125I]-Epidermal Growth Factor (murine) in HEC gel, 0.1 mg/mL |  | 0.40 ± 0.21 ng/cm^2/hr | 0.11 ± 0.08 ng/cm^2/hr | 0.07 ± 0.06 ng/cm^2/hr | 0.04 ± 0.02 ng/cm^2/hr | 0.09 ± 0.06 ng/cm^2/hr | 0.01 ± 0.01 ng/cm^2/hr | 0.00 ± 0.00 ng/cm^2/hr | 0.01 ± 0.00 ng/cm^2/hr | 0.001 ± 0.000 µg | 0.008 ± 0.002 µg | 0.013 ± 0.001 µg | 0.014 ± 0.001 µg | 0.479 ± 0.005 µg | 1.629 ± 10.311% | 2.646 ± 0.242% | 2.773 ± 0.131% | 98.145 ± 1.046% | 0.278 ± 0.095% | 
PTH(1-34): parathyroid hormone fragment 1-34, supplied by Neo-MPS |  |  |  |  |  |  |  |  |  |  |  |  |  |  |  |  |  |  |  | compatibility with anionic polymers [3]: not compatible with anionic polymers
Somatostatin: [125I]Tyr11-Somatostatin 14 in HEC gel, 1.0 mg/mL (AGCKNFFWKTY(125I)TSC; ends and bridges not checked; UniProt P61278 103-116, looked up, variant F11Y) |  | 8.09 ± 3.68 ng/cm^2/hr | 2.14 ± 1.89 ng/cm^2/hr | 0.54 ± 1.89 ng/cm^2/hr | 0.22 ± 0.20 ng/cm^2/hr | 0.11 ± 0.05 ng/cm^2/hr | 0.02 ± 0.02 ng/cm^2/hr | 0.00 ± 0.00 ng/cm^2/hr | 0.01 ± 0.00 ng/cm^2/hr | 0.013 ± 0.007 µg | 0.118 ± 0.008 µg | 0.180 ± 0.010 µg | 0.190 ± 0.009 µg | 4.561 ± 0.118 µg | 2.410 ± 0.169% | 3.697 ± 0.200% | 3.886 ± 0.180% | 93.493 ± 2.412% | 0.234 ± 0.149% | 
XF15//339006-2: Neat PTH(1-34) from Neo-MPS, lyophilized powder, vials purged with nitrogen |  |  |  |  |  |  |  |  |  |  |  |  |  |  |  |  |  |  |  | degradation (in words) [4]: significant degradation; reduction of PTH(1-34) assay ([4]; six months of storage at 40° C.): ~25%
